{
  "source": "paper PMC11840598",
  "target": "TM expressed on COS-7 cells from pTM-GFP recombinant plasmids (UniProt P07204)",
  "sequence (P07204 19-575)": "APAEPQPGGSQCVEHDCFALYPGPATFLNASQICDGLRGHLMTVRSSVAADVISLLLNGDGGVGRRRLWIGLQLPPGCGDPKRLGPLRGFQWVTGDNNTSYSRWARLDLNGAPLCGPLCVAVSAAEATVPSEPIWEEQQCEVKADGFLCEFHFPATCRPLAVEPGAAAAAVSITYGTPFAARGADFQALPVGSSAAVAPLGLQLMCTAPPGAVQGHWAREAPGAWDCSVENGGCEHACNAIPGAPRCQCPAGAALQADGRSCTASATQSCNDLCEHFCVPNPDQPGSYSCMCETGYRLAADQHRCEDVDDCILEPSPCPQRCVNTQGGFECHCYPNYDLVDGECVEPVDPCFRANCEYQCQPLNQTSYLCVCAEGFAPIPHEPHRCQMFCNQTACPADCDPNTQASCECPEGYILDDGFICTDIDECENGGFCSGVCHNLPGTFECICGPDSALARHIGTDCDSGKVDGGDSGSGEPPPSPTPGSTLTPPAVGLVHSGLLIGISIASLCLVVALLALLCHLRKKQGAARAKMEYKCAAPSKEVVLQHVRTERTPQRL",
  "test": "atomic force microscopy",
  "data": [
    {"substance": "human alpha thrombin (from UniProt P00734 364-622) (enzyme)", "values": [
      {"measurement": "interactional force (single-molecule rupture force), with atorvastatin", "value": 84, "unit": "pN"},
      {"measurement": "interactional force (single-molecule rupture force), with pitavastatin", "value": 87, "unit": "pN"},
      {"measurement": "interactional force (single-molecule rupture force), with rosuvastatin", "value": 74.4, "unit": "pN"}
    ]}
  ]
}
